# Data published in US8633250B2, “Cell repair and regeneration by suramin and related polysulfonated napthylureas” (MUSC Foundation for Research Development, priority 2006, dated 2014).
# B1: EGF: Human recombinant EGF (epidermal growth factor) from R & D systems (protein, UniProt P01133 23-1207, looked up)
# Pro-epidermal growth factor: PQHWSCPEGTLAGNGNSTCVGPAPFLIFSHGNSIFRIDTEGTNYEQLVVDAGVSVIMDFHYNEKRIYWVDLERQLLQRVFLNGSRQERVCNIEKNVSGMAINWINEEVIWSNQQEGIITVTDMKGNNSHILLSALKYPANVAVDPVERFIFWSSEVAGSLYRADLDGVGVKALLETSEKITAVSLDVLDKRLFWIQYNREGSNSLICSCDYDGGSVHISKHPTQHNLFAMSLFGDRIFYSTWKMKTIWIANKHTGKDMVRINLHSSFVPLGELKVVHPLAQPKAEDDTWEPEQKLCKLRKGNCSSTVCGQDLQSHLCMCAEGYALSRDRKYCEDVNECAFWNHGCTLGCKNTPGSYYCTCPVGFVLLPDGKRCHQLVSCPRNVSECSHDCVLTSEGPLCFCPEGSVLERDGKTCSGCSSPDNGGCSQLCVPLSPVSWECDCFPGYDLQLDEKSCAASGPQPFLLFANSQDIRHMHFDGTDYGTLLSQQMGMVYALDHDPVENKIYFAHTALKWIERANMDGSQRERLIEEGVDVPEGLAVDWIGRRFYWTDRGKSLIGRSDLNGKRSKIITKENISQPRGIAVHPMAKRLFWTDTGINPRIESSSLQGLGRLVIASSDLIWPSGITIDFLTDKLYWCDAKQSVIEMANLDGSKRRRLTQNDVGHPFAVAVFEDYVWFSDWAMPSVMRVNKRTGKDRVRLQGSMLKPSSLVVVHPLAKPGADPCLYQNGGCEHICKKRLGTAWCSCREGFMKASDGKTCLALDGHQLLAGGEVDLKNQVTPLDILSKTRVSEDNITESQHMLVAEIMVSDQDDCAPVGCSMYARCISEGEDATCQCLKGFAGDGKLCSDIDECEMGVPVCPPASSKCINTEGGYVCRCSEGYQGDGIHCLDIDECQLGEHSCGENASCTNTEGGYTCMCAGRLSEPGLICPDSTPPPHLREDDHHYSVRNSDSECPLSHDGYCLHDGVCMYIEALDKYACNCVVGYIGERCQYRDLKWWELRHAGHGQQQKVIVVAVCVVVLVMLLLLSLWGAHYYRTQKLLSKNPKNPYEESSRDVRSRRPADTEDGMSSCPQPWFVVIKEHQDLKNGGQPVAGEDGQAADGSMQPTSWRQEPQLCGMGTEQGCWIPVSSDKGSCPQVMERSFHMPSYGTQTLEGGVEKPHSLLSANPLWQQRALDPPHQMELTQ
# modifications: Pro-epidermal growth factor
# notes: Human recombinant EGF (epidermal growth factor) from R & D systems
# Assays:
# Format in all cases: cell-based, rabbit
# [1] = tested on: renal proximal tubule cells (RPTC); test: RPTC outgrowth from plated renal proximal tubules (photographs); settings: after 24 hr exposed for 24 hr, 50 μM suramin, 10 ng/ml EGF or suramin+EGF
# Procedure: (§1) Isolation and culture of renal proximal tubules: Isolation and culture of renal proximal tubules were performed as described previously (Rodeheaver et al., 1990; Nowak and Schnellmann, 1995; Nowak and Schnellmann, 1996). Female New Zealand White rabbits (1.5-2.5 kg) were purchased from Myrtle's Rabbitry (Thompson Station, Tenn.). RPTC were isolated using the iron oxide perfusion method and grown in 6-well tissue culture dishes under improved conditions. The culture medium was an 1:1 mixture of DMEM/Ham's F-12 (without glucose, phenol red, or sodium pyruvate) supplemented with 15 mM HEPES buffer, 2.5 mM L-glutamine, 1 μM pyridoxine HCl, 15 mM sodium bicarbonate, and 6 mM lactate. Hydrocortisone (50 μM), selenium (5 ng/ml), human transferrin (5 μg/ml) bovine insulin (10 nM) and L-ascorbic acid-2-phosphate (50 μM) were added daily to fresh culture medium.
# (§2) Isolated tubules were plated at 1 mg protein/well in a 6-well plate. On day 2, RPTC were incubated in the presence and absence of various pharmacological inhibitors for different time periods as indicated in the figure legends. For some experiments, suramin was added to RPTC on day 3 and then incubated for 24 hr in the presence or absence of various inhibitors before samples were taken.
# [2] = tested on: renal proximal tubule cells (RPTC); test: Cell cycle analysis by flow cytometry: number of RPTC in S-phase; settings: 24 hr treatment, four days following plating; suramin 50 μM, EGF 10 ng/ml; untreated approximately 20%
# Procedure: as §1
# Isolated tubules were plated at 1 mg protein/well in a 6-well plate. On day 2, RPTC were incubated in the presence and absence of various pharmacological inhibitors for different time periods as indicated in the figure legends. […]
# Cell cycle analysis: Cell cycle phase was determined using flow cytometry as previously described (Zhuang et al., 2004). Cells were harvested, stained with propidium iodide and the number of cells in S-phase of cell cycle determined.
# [3] = tested on: renal proximal tubule cells (RPTC); test: RPTC scattering, fibroblast-like morphology and lamellipodia (bright field, phalloidin staining); settings: 50 μM suramin or 10 ng/ml EGF, 24 hr, phalloidin staining
# Procedure: as §1, §2
# Immunocytochemistry: After various treatments, RPTC were fixed with 10% buffered formalin, washed, permeabilized, and blocked with BSA. […]
# EGF receptor = test: Immunoblot of EGF receptor phosphorylation (Tyr1068) in RPTC; settings: 50 μM suramin, 10 ng/ml EGF or both for 10 min
# Procedure: Preparation of cell lysates and immunoblot analysis: After different treatments, RPTC were washed twice with PBS and harvested in lysis buffer (0.25 M Tris-HCl, pH 6.8, 4% SDS, 10% glycerol, 1 mg/ml bromophenol blue, and 0.5% 2-mercaptoethanol). Cells were disrupted by sonication for 15 seconds and lysates stored at −20 °C. Equal amounts of cellular protein lysate were separated on 10% polyacrylamide gels and transferred to nitrocellulose membranes. After treatment with 5% skim milk at 4 °C overnight, membranes were incubated with various antibodies for 1 hr, and then incubated with an appropriate horseradish-peroxidase conjugated secondary antibody (Amersham, Piscataway, N.J.). Bound antibodies were visualized following chemiluminescence detection on autoradiographic film.
# To determine whether suramin caused EGF receptor activation, we performed immunoblot analysis using an antibody against phosphorylated tyrosine 1068 of the EGF receptor. Total EGF receptor content was measured using immunoblot analysis and an antibody that recognizes the EGF receptor independent of its phosphorylation state to control for gel loading. […] Thus, suramin induced RPTC proliferation and scattering is not through the EGF receptor.
molecule,measurement,setting,value
B1,RPTC outgrowth,[1],promoted RPTC outgrowth
same,RPTC in S-phase,[2],32%
same,formation of lamellipodia and intercellular contacts,[3],increased the formation of lamellipodia and decreased intercellular contacts
same,EGF receptor phosphorylation (tyrosine 1068),EGF receptor,did observe phosphorylated EGF receptor
